Assay [1] has as its target T1, SARS-CoV-1 RBD (SARS-CoV-1, UniProt P59594 306-527).
Assay [2] concerns the target T1, SARS-CoV-1 RBD. This is another data set of the same source.

We go through three molecules from US20240059759A1 (BIGHAT BIOSCIENCES, published 2024).

B1: VHH-72(S57G) (VHH)
VHH: QVQLQESGGGLVQAGGSLRLSCAASGRTFSEYAMGWFRQAPGKEREFVATISWSGGGTYYTDSVKGRFTISRDNAKNTVYLQMNSLKPDDTAVYYCAAAGLGTVVSEWDYDYDYWGQGTQVTVSS
Regarding B1, the “Rel. EC50 - ELISA” value in the assay with SARS-CoV-1 RBD [1] is 0.3 relative to WT.

B2: VHH-72 (S57A) (VHH)
VHH: QVQLQESGGGLVQAGGSLRLSCAASGRTFSEYAMGWFRQAPGKEREFVATISWSGGATYYTDSVKGRFTISRDNAKNTVYLQMNSLKPDDTAVYYCAAAGLGTVVSEWDYDYDYWGQGTQVTVSS
In the case of B2, in the assay with SARS-CoV-1 RBD [1], the “Rel. EC50 - ELISA” value is 0.43 relative to WT.

B3: VHH-72 (S57Y) (VHH)
VHH: QVQLQESGGGLVQAGGSLRLSCAASGRTFSEYAMGWFRQAPGKEREFVATISWSGGYTYYTDSVKGRFTISRDNAKNTVYLQMNSLKPDDTAVYYCAAAGLGTVVSEWDYDYDYWGQGTQVTVSS
As to B3, the EC50 with SARS-CoV-1 RBD [2] was greater than 10 µg/mL.

Usually EC50 stands for the concentration at which the effect is half-maximal. The low end stands for higher potency in that assay, the high end for lower potency in that assay.
